In US20080293626A1, “Pigment epithelium-derived factor as a therapeutic agent for vascular leakage” (The Johns Hopkins University, priority 2003, published 2008):

Molecular target: PEDF receptor (unidentified cell surface receptor on bovine retinal capillary endothelial cells)
Test: cell-based or functional assay

Substance “Recombinant human pigment epithelium-derived factor (PEDF) (from UniProt P36955 20-418) (ligand)” has an inhibition of VEGF stimulated endothelial cell migration (BRCEC microchemotaxis chamber), IC50 of 0.5 nM.
